Assay results taken from patent US20040086863A1 (published 2004).

Assays:
[1] = molecular target: T1, HA-tagged PH domain of mSos1 (residues 448-577) (mouse, UniProt Q62245 448-577); test: GST pull-down from yeast lysates, anti-HA western blot
T1 construct: range 448-577; Expressed in L40 yeast; The species is read from the printed prefix in 'mSos1'; also called SOS1 PH domain; not shown: HA tag
T1 sequence (looked up): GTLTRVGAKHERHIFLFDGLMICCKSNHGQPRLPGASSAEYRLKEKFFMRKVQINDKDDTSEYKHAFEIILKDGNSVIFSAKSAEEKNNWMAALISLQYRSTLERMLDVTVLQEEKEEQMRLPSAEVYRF

[2] = molecular target: T2, HA-tagged PH domain of mouse Ect-2 (residues 495-621) (mouse, UniProt Q07139 670-796); test: as above
T2 construct: range 670-796; Expressed in L40 yeast; also called ECT-2 PH domain; not shown: HA tag
T2 sequence (looked up): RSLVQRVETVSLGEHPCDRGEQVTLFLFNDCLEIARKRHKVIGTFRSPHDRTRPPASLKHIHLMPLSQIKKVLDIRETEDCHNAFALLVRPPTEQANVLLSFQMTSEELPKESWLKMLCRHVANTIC

[3] = molecular target: T3, HA-tagged PH domain of human RasGAP (residues 464-603) (human, UniProt P20936 464-603); test: as above
T3 construct: range 464-603; Expressed in L40 yeast; also called Ras-GAP (GAP) PH domain; not shown: HA tag
T3 sequence (looked up): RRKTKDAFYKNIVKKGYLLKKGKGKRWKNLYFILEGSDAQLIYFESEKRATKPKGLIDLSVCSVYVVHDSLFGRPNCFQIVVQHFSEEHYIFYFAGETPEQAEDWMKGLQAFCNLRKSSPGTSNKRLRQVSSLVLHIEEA

[4] = molecular target: T4, HA-tagged IRS-1 PH domain mutant PH^W106A (rat, UniProt P35570 3-133); test: GST pull-down from COS-1 lysates (500 µg), anti-HA western blot
T4 construct: range 3-133; Expressed transiently in COS-1 cells; The residue limits are not restated for this mutant; not shown: HA tag
T4 sequence (looked up): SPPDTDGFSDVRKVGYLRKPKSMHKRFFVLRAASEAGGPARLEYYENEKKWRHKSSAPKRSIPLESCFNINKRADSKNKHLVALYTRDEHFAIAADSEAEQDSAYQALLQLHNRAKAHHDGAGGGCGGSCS

Measured: binding result

B1: GST-PHIP fusion protein containing PHIP residues 8-209 (PBR) isolated from the yeast clone VP1.32 (other)
chain: VGELTENGLTLEEWLPSAWITDTLPRRCPFVPQMGDEVYYFRQGHEAYVEMARKNKIYSINPKKQPWHKMELREQELMKIVGIKYEVGLPTLCCLKLAFLDPDTGKLTGGSFTMKYHDMPDVIDFLVLRQQFDDAKYRRWNIGDRFRSVIDDAWWFGTIESQEPLQPEYPDSLFQCYNVCWDNGDTEKMSPWDMELIPNNAV
notes: Bacterially expressed and immobilized for pull-downs; also called GST-PHIP (PBR); not shown: glutathione S-transferase encoded by the pGEX-3X vector
no binding: [1] | [2] | [3] | [4]
